Experimental data as given in the supplement of paper PMC10724198.
± gives the standard deviation of the averaged measurements.

What was measured:
Saccharomyces cerevisiae [1] = assay: protein stability index of tFT-peptide fusion (C-terminal peptide) (PSI (0-1 scale)); higher = more stable (slower turnover)
Description: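 MPS profiling in S. cerevisiae of the tFT-X12 degron library: putative degron peptides plus stable controls, 12 aa, fused to the C-terminus of a sfGFP-mCherry timer. Cells are FACS-sorted into 8 mCherry/sfGFP bins and deep-sequenced. PSI runs from 0 (unstable) to 1 (stable). Backgrounds are wild type, das1Δ and doa10Δ at 30 °C, and wild type, das1Δ, cdc34-1 and cdc53-1 at 37 °C; 2-3 technical replicates each.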

Saccharomyces cerevisiae [2] = assay: as above; conditions: genetic background: wild type; temperature: 30 C
[3] = genetic background: cdc34-1, temperature: 37 C
[4] = genetic background: cdc53-1, temperature: 37 C
[5] = genetic background: das1 deletion, temperature: 30 C
[6] = genetic background: das1 deletion, temperature: 37 C
[7] = genetic background: doa10 deletion, temperature: 30 C
[8] = genetic background: wild type, temperature: 30 C
[9] = genetic background: wild type, temperature: 37 C
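Note: PSI is a weighted mean of sequencing reads over stability bins, variants kept only with over 10 reads, mCherry proximal and sfGFP distal, peptide attached via GGGS linker.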

Sequence	protein stability index (Saccharomyces cerevisiae [2])	also measured
AEIVCLTDGLLF	0.5 ± 0.2	protein stability index (Saccharomyces cerevisiae [1]; [3]): 0.715 ± 0.012; protein stability index (Saccharomyces cerevisiae [1]; [4]): 0.758 ± 0.038; protein stability index (Saccharomyces cerevisiae [1]; [5]): 0.623 ± 0.013; protein stability index (Saccharomyces cerevisiae [1]; [6]): 0.7252 ± 0.0028; protein stability index (Saccharomyces cerevisiae [1]; [7]): 0.641 ± 0.028; protein stability index (Saccharomyces cerevisiae [1]; [8]): 0.665 ± 0.024; protein stability index (Saccharomyces cerevisiae [1]; [9]): 0.707 ± 0.0076
AFFLLVSLLVSP	0.204 ± 0.097	protein stability index (Saccharomyces cerevisiae [1]; [3]): 0.0637 ± 0.025; protein stability index (Saccharomyces cerevisiae [1]; [4]): 0.0989 ± 0.021; protein stability index (Saccharomyces cerevisiae [1]; [5]): 0.122 ± 0.046; protein stability index (Saccharomyces cerevisiae [1]; [6]): 0.219 ± 0.0041; protein stability index (Saccharomyces cerevisiae [1]; [7]): 0.0944 ± 0.0098; protein stability index (Saccharomyces cerevisiae [1]; [8]): 0.132 ± 0.041; protein stability index (Saccharomyces cerevisiae [1]; [9]): 0.186 ± 0.0021
APPLPFPTPPPS	–	protein stability index (Saccharomyces cerevisiae [1]; [3]): 0.68 ± 0.031; protein stability index (Saccharomyces cerevisiae [1]; [4]): 0.747 ± 0.034; protein stability index (Saccharomyces cerevisiae [1]; [5]): 0.644 ± 0.042; protein stability index (Saccharomyces cerevisiae [1]; [6]): 0.693 ± 0.038; protein stability index (Saccharomyces cerevisiae [1]; [7]): 0.647 ± 0.029; protein stability index (Saccharomyces cerevisiae [1]; [8]): 0.633 ± 0.029; protein stability index (Saccharomyces cerevisiae [1]; [9]): 0.678 ± 0.0098
AVTMSYQCGIFI	–	protein stability index (Saccharomyces cerevisiae [1]; [3]): 0.646 ± 0.029; protein stability index (Saccharomyces cerevisiae [1]; [4]): 0.672 ± 0.031; protein stability index (Saccharomyces cerevisiae [1]; [5]): 0.564 ± 0.0081; protein stability index (Saccharomyces cerevisiae [1]; [6]): 0.71 ± 0.028; protein stability index (Saccharomyces cerevisiae [1]; [7]): 0.5372 ± 0.0042; protein stability index (Saccharomyces cerevisiae [1]; [8]): 0.566 ± 0.019; protein stability index (Saccharomyces cerevisiae [1]; [9]): 0.68 ± 0.022
FGGVFCVMARLV	–	protein stability index (Saccharomyces cerevisiae [1]; [3]): 0.602 ± 0.14; protein stability index (Saccharomyces cerevisiae [1]; [4]): 0.685 ± 0.016; protein stability index (Saccharomyces cerevisiae [1]; [5]): 0.629 ± 0.034; protein stability index (Saccharomyces cerevisiae [1]; [6]): 0.689 ± 0.01; protein stability index (Saccharomyces cerevisiae [1]; [7]): 0.318 ± 0.0054; protein stability index (Saccharomyces cerevisiae [1]; [8]): 0.356 ± 0.025; protein stability index (Saccharomyces cerevisiae [1]; [9]): 0.506 ± 0.0059
GGGGGGRWGRLC	–	protein stability index (Saccharomyces cerevisiae [1]; [3]): 0.634 ± 0.047; protein stability index (Saccharomyces cerevisiae [1]; [4]): 0.752 ± 0.031; protein stability index (Saccharomyces cerevisiae [1]; [5]): 0.66 ± 0.019; protein stability index (Saccharomyces cerevisiae [1]; [6]): 0.7572 ± 0.0018; protein stability index (Saccharomyces cerevisiae [1]; [7]): 0.189 ± 0.0036; protein stability index (Saccharomyces cerevisiae [1]; [8]): 0.232 ± 0.018; protein stability index (Saccharomyces cerevisiae [1]; [9]): 0.478 ± 0.0099
IRRWGRCRVRCM	–	protein stability index (Saccharomyces cerevisiae [1]; [3]): 0.584 ± 0.029; protein stability index (Saccharomyces cerevisiae [1]; [4]): 0.655 ± 0.034; protein stability index (Saccharomyces cerevisiae [1]; [5]): 0.428 ± 0.037; protein stability index (Saccharomyces cerevisiae [1]; [6]): 0.616 ± 0.018; protein stability index (Saccharomyces cerevisiae [1]; [7]): 0.255 ± 0.0087; protein stability index (Saccharomyces cerevisiae [1]; [8]): 0.288 ± 0.028; protein stability index (Saccharomyces cerevisiae [1]; [9]): 0.52896 ± 2.4e-05
LIVFSGFLFLLS	–	protein stability index (Saccharomyces cerevisiae [1]; [3]): 0.442 ± 0.01; protein stability index (Saccharomyces cerevisiae [1]; [4]): 0.53 ± 0.049; protein stability index (Saccharomyces cerevisiae [1]; [5]): 0.373 ± 0.031; protein stability index (Saccharomyces cerevisiae [1]; [6]): 0.5639 ± 0.0056; protein stability index (Saccharomyces cerevisiae [1]; [7]): 0.3758 ± 0.0014; protein stability index (Saccharomyces cerevisiae [1]; [8]): 0.364 ± 0.023; protein stability index (Saccharomyces cerevisiae [1]; [9]): 0.5096 ± 0.0027
PVPERTSATEPP	–	protein stability index (Saccharomyces cerevisiae [1]; [3]): 0.61 ± 0.052; protein stability index (Saccharomyces cerevisiae [1]; [4]): 0.667 ± 0.029; protein stability index (Saccharomyces cerevisiae [1]; [5]): 0.617 ± 0.038; protein stability index (Saccharomyces cerevisiae [1]; [6]): 0.6671 ± 0.006; protein stability index (Saccharomyces cerevisiae [1]; [7]): 0.634 ± 0.0083; protein stability index (Saccharomyces cerevisiae [1]; [8]): 0.627 ± 0.019; protein stability index (Saccharomyces cerevisiae [1]; [9]): 0.655 ± 0.0013
RLLLLPGPLALQ	–	protein stability index (Saccharomyces cerevisiae [1]; [3]): 0.634 ± 0.022; protein stability index (Saccharomyces cerevisiae [1]; [4]): 0.73 ± 0.034; protein stability index (Saccharomyces cerevisiae [1]; [5]): 0.67 ± 0.022; protein stability index (Saccharomyces cerevisiae [1]; [6]): 0.7 ± 0.016; protein stability index (Saccharomyces cerevisiae [1]; [7]): 0.685 ± 0.054; protein stability index (Saccharomyces cerevisiae [1]; [8]): 0.673 ± 0.021; protein stability index (Saccharomyces cerevisiae [1]; [9]): 0.714 ± 0.062
RRAVGLANFTIK	–	protein stability index (Saccharomyces cerevisiae [1]; [3]): 0.705 ± 0.016; protein stability index (Saccharomyces cerevisiae [1]; [4]): 0.773 ± 0.035; protein stability index (Saccharomyces cerevisiae [1]; [5]): 0.678 ± 0.062; protein stability index (Saccharomyces cerevisiae [1]; [6]): 0.693 ± 0.028; protein stability index (Saccharomyces cerevisiae [1]; [7]): 0.639 ± 0.06; protein stability index (Saccharomyces cerevisiae [1]; [8]): 0.671 ± 0.019; protein stability index (Saccharomyces cerevisiae [1]; [9]): 0.706 ± 0.022
VLICFSVFSWVV	–	protein stability index (Saccharomyces cerevisiae [1]; [3]): 0.0264 ± 0.00023; protein stability index (Saccharomyces cerevisiae [1]; [4]): 0.0313 ± 0.00079; protein stability index (Saccharomyces cerevisiae [1]; [5]): 0.0368 ± 0.01; protein stability index (Saccharomyces cerevisiae [1]; [6]): 0.0531 ± 0.0097; protein stability index (Saccharomyces cerevisiae [1]; [7]): 0.0228 ± 0.0066; protein stability index (Saccharomyces cerevisiae [1]; [8]): 0.0178 ± 0.0049; protein stability index (Saccharomyces cerevisiae [1]; [9]): 0.0371 ± 0.0086
VPPGCSLFAFIL	–	protein stability index (Saccharomyces cerevisiae [1]; [3]): 0.7246 ± 0.005; protein stability index (Saccharomyces cerevisiae [1]; [4]): 0.75537 ± 0.00043; protein stability index (Saccharomyces cerevisiae [1]; [5]): 0.644 ± 0.025; protein stability index (Saccharomyces cerevisiae [1]; [6]): 0.7794 ± 0.005; protein stability index (Saccharomyces cerevisiae [1]; [7]): 0.555 ± 0.032; protein stability index (Saccharomyces cerevisiae [1]; [8]): 0.547 ± 0.019; protein stability index (Saccharomyces cerevisiae [1]; [9]): 0.73 ± 0.01
WSRRGQRGKAWR	0.733 ± 0.12	–
WSRSGGWEKYGV	0.681 ± 0.024	–
WSRVQFFYFCWI	0.547 ± 0.051	–
WSSTLFFFVGFS	0.673 ± 0.056	–
WSSTPSCVPDLP	0.721 ± 0.054	–
WSVVGVGGCGAR	0.712 ± 0.041	–
WSVVRGGGCGAR	0.697 ± 0.028	–
WTLELSGWLRSE	0.77 ± 0.079	–
WVCRVWGGWLRG	0.686 ± 0.044	–
WVGGGRAKAKRE	0.696 ± 0.054	–
WVGRIRGMEGWM	0.696 ± 0.037	–
WVGSWYVATGEA	0.754 ± 0.063	–
WVGYAWDGKFDL	0.736 ± 0.11	–
WVREFSHKHVMS	0.718 ± 0.01	–

Sequence	protein stability index (Saccharomyces cerevisiae [2])	also measured
WVRVSVPAVGRI	0.7035 ± 0.0067	–
WVSDTNNTSRRK	0.752 ± 0.051	–
WVSFVFCSLLGG	0.588 ± 0.018	–
WVSHMHLGSFVH	0.701 ± 0.09	–
WVSPALEALYRK	0.764 ± 0.07	–
WWFGGETGVGGR	0.712 ± 0.039	–
WWPDILWLNTGW	0.701 ± 0.035	–
WYIEYLNYTTEQ	0.697 ± 0.0089	–
WYKIQILDPNVG	0.749 ± 0.011	–
WYLRSFVVSTLQ	0.533 ± 0.065	–
YARVIFGGNWFS	0.552 ± 0.02	–
YASRVLCVGLVL	0.636 ± 0.094	–
YCGCSLSEMSWV	0.741 ± 0.037	–
YCGPSAGREGGG	0.771 ± 0.081	–
YCGSVCRPYSYL	0.695 ± 0.057	–
YCLLCSFVGPPA	0.731 ± 0.19	–
YCPPHRCEAECI	0.657 ± 0.06	–
YCRGGGRAKREV	0.693 ± 0.014	–
YDDSSLLFSNNL	0.702 ± 0.0078	–
YDLGHYFSIPRL	0.747 ± 0.011	–
YDTGSRASWIAF	0.714 ± 0.067	–
YDVGSKAVLTLE	0.566 ± 0.0074	–
YEGVNLSWYRIR	0.676 ± 0.045	–
YENFHTRFAVGV	0.504 ± 0.037	–
YEPNYKEKKTQY	0.69 ± 0.017	–
YFAQCLDFFSLV	0.663 ± 0.019	–
YFCGRGSVLLVT	0.56 ± 0.014	–

Sequence	protein stability index (Saccharomyces cerevisiae [2])	also measured
YFGPSPTRPPVP	0.7225 ± 0.0015	–
YFLPESKIGRSG	0.705 ± 0.023	–
YFPFPPPLLSPP	0.766 ± 0.02	–
YGCVSPVAGFAN	0.7254 ± 0.0069	–
YGGGGWRGVALG	0.65 ± 0.043	–
YGVFALFLSSLS	0.576 ± 0.056	–
YHDVRSLGPSRT	0.666 ± 0.04	–
YIKAPCMRQSGG	0.704 ± 0.019	–
YILPTPKAFRSF	0.738 ± 0.17	–
YKNRKYNGKIRI	0.585 ± 0.18	–
YLCLPPALISRI	0.656 ± 0.029	–
YLDTVALLSRVL	0.569 ± 0.027	–
YLFPFLCFSPPP	0.702 ± 0.072	–
YLGTETSLTSLK	0.786 ± 0.088	–
YLLKRSQSLLII	0.5 ± 0.014	–
YLPYRTCSWKYE	0.56 ± 0.022	–
YLYSCVCGVLSN	0.5472 ± 0.0049	–
YNINIKKENITE	0.68 ± 0.025	–
YNSTVVKKGRCP	0.7024 ± 0.0028	–
YPPLPVRPLVLL	0.515 ± 0.0056	–
YPPPPPPPPPRF	0.7367 ± 0.0056	–
YPPRLPSILPFP	0.696 ± 0.046	–
YPSLPQIVLATV	0.5033 ± 0.004	–
YQCPASSPVLSA	0.7191 ± 0.005	–
YQEIIKRQTGNK	0.745 ± 0.012	–
YQFAALRFTFPL	0.647 ± 0.044	–
YRDQAGTGSWRM	0.692 ± 0.023	–

Sequence	protein stability index (Saccharomyces cerevisiae [2])	also measured
YRGRGSDQYAGT	0.624 ± 0.058	–
YRHYVKLGPKPF	0.668 ± 0.024	–
YRKGWRREVGGG	0.699 ± 0.011	–
YRLAPVSLTMSS	0.706 ± 0.045	–
YRLDTFCPHFSN	0.752 ± 0.13	–
YRLRAFLSMTQQ	0.616 ± 0.01	–
YRRDVGAARVLP	0.67 ± 0.021	–
YRTSLSMANHLL	0.611 ± 0.069	–
YSAPFRIPLSLR	0.631 ± 0.034	–
YSCDEDPVTVRG	0.699 ± 0.036	–
YTPSGHKRRMYV	0.642 ± 0.064	–
YTPSPHVRAPRH	0.737 ± 0.025	–
YTPVKDNDVKVY	0.722 ± 0.077	–
YTRAGNDKIFWE	0.809 ± 0.0096	–
YTRGVENTDMAP	0.768 ± 0.022	–
YTYPINPLDQTR	0.7196 ± 0.0027	–
YVCLATLSSFSF	0.644 ± 0.048	–
YVCRCGCLVKSV	0.656 ± 0.043	–
YVEVLLFTSVGF	0.569 ± 0.07	–
YVIAMVYGAPWS	0.60667 ± 0.00018	–
YVKSIRRRDYIW	0.694 ± 0.0046	–
YWGGWWGGWEIG	0.689 ± 0.014	–
YYIITRWPNTTR	0.847 ± 0.2	–
YYLQPTCLCFWE	0.698 ± 0.0041	–
